Patent US20210047372A1 (Affibody, published 2021)
Residue numbers refer to the chain shown, from its start. Numbers in names are those of the source. Read-outs that look alike come from different tables or passages of the source. One block for each binder: values may come before it.

What was measured:
Test in all cases: SPR, Biacore T200; target immobilized on CM5, His6-tagged Y variant injected; 1:1 Langmuir
insulin [1] = molecular target: T1, insulin (UniProt P01308 25-54; P01308 90-110, limits assumed)
T1 construct: Mature insulin has two chains (A and B) from one precursor; also called b-insulin
T1 sequence (P01308 25-54 limits assumed, form in doubt, chain 1 of 2): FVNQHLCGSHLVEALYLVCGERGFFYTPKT
T1 sequence (P01308 90-110 limits assumed, form in doubt, chain 2 of 2): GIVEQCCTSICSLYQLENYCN
Protocol: (§1) Kinetic constants (kₐ and kd) and affinities (KD) were determined for Hiss-tagged Y variants using a Biacore T200 instrument (GE Healthcare). Target proteins C4, IL-6 and insulin, respectively, were immobilized in separate flow cells on the carboxylated dextran layer of different CM5 chip surfaces (GE Healthcare).
(§2) Immobilization was performed using amine coupling chemistry according to the manufacturer's protocol and PBS pH 7.4 supplemented with 0.1 Tween20 (PBST 0.1%) as running buffer. The ligand immobilization levels on the surfaces were 3280-8830 RU for C4, 495-1184 RU for IL-6, and 270-282 RU for insulin. One flow cell surface on each chip was activated and deactivated for use as blank during analyte injections. In the kinetic experiment, PBST 0.1% was used as running buffer at a flow rate of 30 μl/min. The analytes, i.e. Y variants, were each diluted in PBST 0.1 buffer at concentrations of 1000, 500, 100, 50 and 10 nM and injected for 5 min, followed by dissociation in running buffer for 3 min. After dissociation, the surfaces were regenerated with one injection of 30 μl 10 mM HCl. Kinetic constants were calculated from the sensorgrams using the Langmuir 1:1 model of Biacore T200 Evaluation software 2.0 (GE Healthcare).

insulin [2] = molecular target: T1, insulin; remark: listed apart in the source
Protocol: as §1, §2

[3] = molecular target: T2, complement component 4 (C4) (UniProt P0C0L4 20-675; P0C0L4 680-1446; P0C0L4 1454-1744, limits assumed)
T2 construct: Natural C4 is a three-chain protein (alpha, beta, gamma) made from one precursor; Biotinylated for ELISA, amine-coupled to the chip for SPR; also called b-C4
T2 sequence (P0C0L4 20-675 limits assumed, chain 1 of 3): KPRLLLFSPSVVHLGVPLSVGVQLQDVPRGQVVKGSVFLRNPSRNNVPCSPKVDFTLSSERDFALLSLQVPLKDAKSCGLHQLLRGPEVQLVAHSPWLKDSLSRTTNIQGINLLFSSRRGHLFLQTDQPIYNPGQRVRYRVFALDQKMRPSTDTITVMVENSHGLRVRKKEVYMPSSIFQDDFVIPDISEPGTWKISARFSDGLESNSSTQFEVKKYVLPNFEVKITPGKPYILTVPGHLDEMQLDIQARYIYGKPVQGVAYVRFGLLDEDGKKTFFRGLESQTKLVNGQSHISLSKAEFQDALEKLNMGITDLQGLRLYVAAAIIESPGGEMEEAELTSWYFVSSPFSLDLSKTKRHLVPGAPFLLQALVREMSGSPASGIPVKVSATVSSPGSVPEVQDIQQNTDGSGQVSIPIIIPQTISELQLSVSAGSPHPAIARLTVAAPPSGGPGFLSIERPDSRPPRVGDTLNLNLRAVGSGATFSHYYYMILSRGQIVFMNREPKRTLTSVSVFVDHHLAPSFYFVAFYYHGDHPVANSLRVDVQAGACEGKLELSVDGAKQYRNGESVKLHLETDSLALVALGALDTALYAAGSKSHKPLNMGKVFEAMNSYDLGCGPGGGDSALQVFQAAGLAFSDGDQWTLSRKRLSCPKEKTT
T2 sequence (P0C0L4 680-1446 limits assumed, chain 2 of 3): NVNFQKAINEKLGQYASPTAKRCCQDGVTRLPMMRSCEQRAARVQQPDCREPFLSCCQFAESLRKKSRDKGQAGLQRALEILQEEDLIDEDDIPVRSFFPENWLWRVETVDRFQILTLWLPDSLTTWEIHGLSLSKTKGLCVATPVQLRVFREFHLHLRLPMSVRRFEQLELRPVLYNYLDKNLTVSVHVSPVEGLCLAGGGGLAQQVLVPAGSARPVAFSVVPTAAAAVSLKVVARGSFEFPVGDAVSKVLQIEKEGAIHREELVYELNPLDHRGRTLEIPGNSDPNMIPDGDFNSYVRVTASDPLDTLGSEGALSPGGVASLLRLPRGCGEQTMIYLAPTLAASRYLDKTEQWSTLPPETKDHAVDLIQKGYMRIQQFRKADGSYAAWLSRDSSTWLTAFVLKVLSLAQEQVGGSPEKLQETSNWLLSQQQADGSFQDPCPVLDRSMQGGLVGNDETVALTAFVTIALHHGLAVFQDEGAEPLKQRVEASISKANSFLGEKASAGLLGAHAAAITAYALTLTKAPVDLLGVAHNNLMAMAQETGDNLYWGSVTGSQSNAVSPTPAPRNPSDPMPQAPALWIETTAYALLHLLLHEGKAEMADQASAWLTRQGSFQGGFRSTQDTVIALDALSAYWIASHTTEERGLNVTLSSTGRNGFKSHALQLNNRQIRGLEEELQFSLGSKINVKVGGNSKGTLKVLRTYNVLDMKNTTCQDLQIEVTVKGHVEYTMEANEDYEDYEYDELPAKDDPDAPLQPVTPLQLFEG
T2 sequence (P0C0L4 1454-1744 limits assumed, chain 3 of 3): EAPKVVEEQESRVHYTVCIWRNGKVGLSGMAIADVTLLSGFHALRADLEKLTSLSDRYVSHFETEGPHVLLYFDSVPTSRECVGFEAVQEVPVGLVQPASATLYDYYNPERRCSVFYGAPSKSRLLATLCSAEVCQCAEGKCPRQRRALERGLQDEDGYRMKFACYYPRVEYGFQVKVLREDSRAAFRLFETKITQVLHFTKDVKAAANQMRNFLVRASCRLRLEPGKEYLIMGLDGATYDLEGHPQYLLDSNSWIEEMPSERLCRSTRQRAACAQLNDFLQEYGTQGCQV
Protocol: as §1, §2

Kd (insulin [1]): 63 nM | Kd (insulin [2]): 63 nM
B1: Y00032 (designed binder)
chain: MGSSHHHHHHGSSLAEAKEAAIAELDSKGVGAYQKSFIELAKSVEHVELLKEAILADLP

Kd (insulin [1]): 490 nM
B2: Y00294 (designed binder)
chain: B1 chain with K35I, S36K, E48Q, A56K
notes: Y00270 with E35Q + A43K

Kd (insulin [1]): 450 nM
B3: Y00292 (designed binder)
chain: B1 chain with S36K, E48Q, E52Q
notes: Y00032 with S23K + E35Q + E39Q

Kd (insulin [1]): 77 nM | Kd (insulin [2]): 77 nM
B4: Y00270 (designed binder)
chain: B1 chain with K35I, S36K
notes: Y00032 with K22I + S23K

Kd (insulin [1]): 490 nM
B5: Y00293 (designed binder)
chain: B1 chain with K35I, S36K, E48Q, E52Q
notes: Y00270 with E35Q + E39Q; also called Y000293

Kd (insulin [1]): 580 nM
B6: Y00295 (designed binder)
chain: B1 chain with K35I, S36K, E48Q, E52Q, A56K
notes: Y00270 with E35Q + E39Q + A43K

Kd [3]: 16 nM | koff [3]: 0.0014 s⁻¹ | kon [3]: 90000 M⁻¹ s⁻¹
B7: Y02358 (designed binder)
chain: MGSSHHHHHHGSSLAEAKEAAIAELDSKGVGADDIKLIQDAPSVEGVQEIKQFILAQLPA
notes: From library Ylib002Naive.I
